Key:
[1] = Enzyme activity on expression of the oxidoreductase in E. coli; assay type: biochemical, Escherichia coli
From the text: Competent Escherichia coli StarBL21 (De3) cells (Invitrogen) were transformed with the expression construct pET21-PC#10 coding for the oxidoreductase according to the invention.
The transformed strain was cultivated in an LB medium (1% tryptone, 0.5% yeast extract, 1% NaCl) with ampicillin (50 ig/ml) until an optical density, measured at 500 nm, of 0.5 was reached. The production of the recombinant oxidoreductase protein was initiated by adding isopropylthiogalactoside (IPTG) at a final concentration of 1 mM. The induction batch was incubated for another 15 h at 25° C. and 220 rpm.
Competent Escherichia coli RB791 cells were transformed with the expression construct pQE30-PC#12 coding for the oxidoreductase according to the invention.
The transformed strain was cultivated in an LB medium (1% tryptone, 0.5% yeast extract, 1% NaCl) with ampicillin (50 ig/ml) until an optical density, measured at 500 nm, of 0.5 was reached. The production of the recombinant oxidoreductase protein was initiated by adding IPTG at a final concentration of 0.1 mM. The induction batch was incubated for another 15 hours at 25° C. and 220 rpm. The enzyme activity achieved amounted to approx. 1000 U/g of wet cell mass.

[2] = pH stability of the recombinant oxidoreductase; assay type: physicochemical; details: pH values above 9.0 and below 5.0
Method: The determination of the activity of the recombinant oxidoreductase was examined by storage in the buffer systems mentioned in Table 3. For this purpose, the various buffers (50 mM) were prepared in a pH range of 4 to 11, and the oxidoreductase produced according to Example 4 was diluted therewith. After 30, 60 and 300 min of incubation, 10 μl were removed from the batch and used in the activity test according to Example 1.
Thereby, the initial value is the measured value which was obtained immediately after diluting (1:20) the enzyme in the potassium phosphate buffer 50 mM pH=7.0. Under the given conditions, said value corresponded to an extinction variation of approx. 0.70/min and was set as a 100% value, and all the following measured values were set in relation to said value.

[3] = Temperature optimum of the oxidoreductase; assay type: biochemical
Method: In order to determine the optimum test temperature, the enzyme activity was measured in the standard measuring batch in a temperature range of 15° C. to 70° C.

[4] = Temperature stability of the oxidoreductase; assay type: physicochemical; details: after 30 min
Method: The temperature stability was determined for the range of 15° C. to 70° C. in a manner analogous to that described under Example 5.2. […] Also in this case, the measured value obtained immediately after diluting the purified oxidoreductase in a potassium phosphate buffer 50 mM pH=7.0 was used as the initial value. Said value was set as a 100% value also in this example.

[5] = Solvent stability of the oxidoreductase; assay type: physicochemical; details: RT
Method: The enzyme stability of the oxidoreductase from P. capsulata was examined in the presence of organic solvents. For this purpose, the oxidoreductase was in each case diluted 1:20 with the indicated solvent mixtures (in case of water-miscible organic solvents) and was incubated at room temperature (20° C. to 24° C.; RT). Subsequently, 10 μl of the enzyme solution were used in the standard test batch. Also in this case, the initial value was equalled to 100% after dilution in the buffer (potassium phosphate buffer (KPP) 100 mM, pH=7.0), and all the other values were set in relation to said initial value.
In case of water-immiscible organic solvents, the dilution likewise took place in a potassium phosphate buffer, the same volume of an organic solvent was added to the batch and the batch was incubated at RT in a thermomixer at 170 rpm. The activity was measured from the aqueous phase.

B1: oxidoreductase from Pichia capsulata: NADH-dependent (S)-specific zinc-dependent carbonyl reductase from Pichia capsulata, amino acid sequence SEQ ID NO: 9, 341 amino acids (protein, listed as Pichia capsulata)
chain: MSALSKTQAGYIFKKGAGHIVKAEVPIPKPTGAQSLLRVKAAGMCHSDLHVIGETLEVPTDGYVLGHEIAGELVEIGDSVNPEVFKVGGRYAVHGLNSCGSCEMCRTGHDNDCTGNESKWYGLGISGGYQQYLLVPNSHHLLPIPDNVSYEVAAATSDAVLTPYHAIKNSGVTPSSKVLMFGLGGLGSNALQILKAFGAYVVAVDVKPASKAIADEFKADEFYTDISQSSWKPASFDYCFDFVSLQVTFDICQKYIKSHGTIFPVGLGSSKLTFDLGNLALREVKIVGNFWGTSQEQIEAMELVSSGRVKPQVHTTELENLPESLEKLEEGKINGRLVMLP
For B1, the enzyme activity achieved ([1]; E. coli RB791, construct pQE30-PC#12, 0.1 mM IPTG) was “approx. 1000 U/g of wet cell mass”, the enzyme activity achieved ([1]; E. coli StarBL21 (De3), construct pET21-PC#10, 1 mM IPTG) was “approx. 6000 U/g of wet cell mass” and the “effect of incubation at extreme pH” value [2] was “immediate deactivation”. For the same molecule, the “Activity in U/ml undiluted enzyme” value ([3]; 15 ° C.) was 73 U/ml, the “Activity in U/ml undiluted enzyme” value ([3]; 20 ° C.) was 83 U/ml and the “Activity in U/ml undiluted enzyme” value ([3]; 25 ° C.) was 128 U/ml. For the same molecule, the “Activity in U/ml undiluted enzyme” value ([3]; 30 ° C.) was 135 U/ml, the “Activity in U/ml undiluted enzyme” value ([3]; 35 ° C.) was 163 U/ml and the “Activity in U/ml undiluted enzyme” value ([3]; 40 ° C.) was 170 U/ml. For the same molecule, the “Activity in U/ml undiluted enzyme” value ([3]; 45 ° C.) was 176 U/ml, the “Activity in U/ml undiluted enzyme” value ([3]; 50 ° C.) was 122 U/ml and the “Activity in U/ml undiluted enzyme” value ([3]; 55 ° C.) was 45 U/ml. For the same molecule, the “Activity in U/ml undiluted enzyme” value ([3]; 60 ° C.) was 0 U/ml, the “Activity in U/ml undiluted enzyme” value ([3]; 65 ° C.) was 0 U/ml and the “Activity in U/ml undiluted enzyme” value ([3]; 70 ° C.) was 0 U/ml. The “optimum temperature (maximum activity)” value ([3]; standard measuring batch, 15° C. to 70° C., listed as recombinant oxidoreductase from P. capsulata) was 45 °C, the “enzyme activity after incubation at 55° C.” value [4] was “can no longer be detected” and the Activity ([5]; 5% EtOH, 8 h) was 77%. For the same molecule, the Activity ([5]; 5% EtOH, 24 h) was 77%, the Activity ([5]; 5% isopropanol, 8 h) was 77% and the Activity ([5]; 5% isopropanol, 24 h) was 77%. For the same molecule, the Activity ([5]; 10% DSMO, 8 h) was 42%, the Activity ([5]; 10% DSMO, 24 h) was 45% and the Activity ([5]; 10% EtOH, 8 h) was 77%. It also gave an Activity ([5]; 10% EtOH, 24 h) of 77%, an Activity ([5]; 10% isopropanol, 8 h) of 72% and an Activity ([5]; 10% isopropanol, 24 h) of 72%. For the same molecule, the Activity ([5]; 20% DSMO, 8 h) was 30%, the Activity ([5]; 20% DSMO, 24 h) was 30% and the Activity ([5]; 20% EtOH, 8 h) was 100%. For the same molecule, the Activity ([5]; 20% EtOH, 24 h) was 100%, the Activity ([5]; 20% isopropanol, 8 h) was 46% and the Activity ([5]; 20% isopropanol, 24 h) was 46%. It also gave an Activity ([5]; 30% EtOH, 8 h) of 64%, an Activity ([5]; 30% EtOH, 24 h) of 64% and an Activity ([5]; 30% isopropanol, 8 h) of 18%. The Activity ([5]; 30% isopropanol, 24 h) was 18%, the Activity ([5]; Buffer KPP 100 mM pH = 7, 1 mM MgCl2, 8 h) was 100% and the Activity ([5]; Buffer KPP 100 mM pH = 7, 1 mM MgCl2, 24 h) was 100%. It also gave an Activity ([5]; butyl acetate (same volume, two-phase), 8 h) of 53%, an Activity ([5]; butyl acetate (same volume, two-phase), 24 h) of 28% and an Activity ([5]; chloroform (same volume, two-phase), 8 h) of 51%. For the same molecule, the Activity ([5]; chloroform (same volume, two-phase), 24 h) was 0%, the Activity ([5]; cyclohexane (same volume, two-phase), 8 h) was 85% and the Activity ([5]; cyclohexane (same volume, two-phase), 24 h) was 70%. The Activity ([5]; diethyl ether (same volume, two-phase), 8 h) was 100%, the Activity ([5]; diethyl ether (same volume, two-phase), 24 h) was 100% and the Activity ([5]; diisopropyl ether (same volume, two-phase), 8 h) was 100%. For the same molecule, the Activity ([5]; diisopropyl ether (same volume, two-phase), 24 h) was 100%, the Activity ([5]; ethyl acetate (same volume, two-phase), 8 h) was 2% and the Activity ([5]; ethyl acetate (same volume, two-phase), 24 h) was 0%. The Activity ([5]; heptane (same volume, two-phase), 8 h) was 74%, the Activity ([5]; heptane (same volume, two-phase), 24 h) was 43% and the Activity ([5]; hexane (same volume, two-phase), 8 h) was 60%. It also gave an Activity ([5]; hexane (same volume, two-phase), 24 h) of 20%, an Activity ([5]; methyl tert-butyl ether (same volume, two-phase), 8 h) of 100% and an Activity ([5]; methyl tert-butyl ether (same volume, two-phase), 24 h) of 100%.
